For this assay, the target named is Porcine skeletal actin, pyrene-labeled (porcine) (UniProt P68137). Briefly: stopped-flow fluorescence.

The kon is the second-order rate constant of association. Read a low kon as slow association. The substance “Cardiac myosin from porcine left ventricular tissue (from UniProt P79293 1-1935) (complex)” returned an association rate constant (kon) of 0.35 M⁻¹ s⁻¹.

For the origin of these results see PMC5598764.
